In publication PMC11096021:

Key:
[1] = molecular target: A/Michigan/45/2015 H1 trimer (for structural studies) (influenza A virus A/Michigan/45/2015 (H1)); assay: cryo-EM structure
[2] = molecular target: A/Perth/16/2009 H3 trimer (for structural studies) (influenza A virus A/Perth/16/2009 (H3N2)); assay: cryo-EM structure
[3] = molecular target: A/Perth/16/2009 H3 trimer (for structural studies) (influenza A virus A/Perth/16/2009 (H3N2)); assay: crystal structure

Substance: A/Michigan/45/2015 H1 trimer (for structural studies) (natural protein)
- stoichiometry N [1]: 3

Substance: A/Perth/16/2009 H3 trimer (for structural studies) (natural protein)
- stoichiometry N [2]: 3
- stoichiometry N [3]: 3
